The domain aggregation screens of Martell et al. (2025)

Experiment: soluble fraction after stress (log2 fold change); higher = more stays soluble; pooled small domains, quantitative proteomics
Conditions: stress: 75 degC
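Note: 20 min heating vs room temperature control held 20 min.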

| Sequence | soluble fraction (log2) |
| --- | --- |
| HMNSTSGIAGVGYWINQYRKKKGMSPVDKKSPLVRRVYDWVQEQYDEGRITIISDAELTRQTELAMEA | -0.482 |
| HMGEDSEPVQVPDVTGQPLWEARRTLSSMGLKVLDDGGSGSVTAQMPSAGATLRNGGQMMLYTYDEALPE | 0.126 |
| HMVGLKWYDTGNKKPPIGTEYKNTELSEALKGHDRKEFTWKELDVLGVNITDKEQYIVVGENYYTQV | 0.0506 |
| HMGGKAITGGEGEIIIRADKAETVAIYGIDGRLVHRVSTEAGDTKRVSVPAGIYIVKGAKVVV | 0.179 |
| HMSRFLEGILQRRAGGKNYFVPDDGSNPIFIADRNSAGAANGDRVRIAQFARRPRSGPEGEVVEILKRAK | -0.0772 |
| HMTVLPTENDAKALVGLNEDEAVKIIEGNGWTYRIGSRDGEQFMLTEDYSTSRLTLGIEKSIVVTATI | -0.543 |
| HMFFDSDTDIQNALNAENSIKKYQLFRTQTLYNSAQSDIDFVNQPEVKAKLFDALENLKNKLGFLAEPT | -0.0329 |
| HMNQTTYTVLYSGMDPADTGKVLTALNEMGVDARTQGEDTVLVPADRADEIRLELAAQGYPTS | 0.06 |
| HMRRTVIVTAAHAEIRERPDANAPLVFSAEQKVSLDYQETAPGGWVKVRHRDGQSGYVRTNQI | -0.716 |
| HMHFIMEYRIRAYVDELFESAPRTQRAYELKIELTQNLIDKYYALVSEGKSEQDAYNLTVMSIGDVREL | -3.01 |
| HMNKPTSMYKLRLLLKHYHAGASKRWMADVLDISRSTLNVYLARIESLNLAFEEWEALSDLEVSRLLINP | -3.22 |
| HMNIDNTWQPSEDVVEILTRSGINEDFINELIPEFIVYWTERPGTLVSYNSKFIEHVRLKWAQHSAEI | -0.375 |
| HMGPDTVDRTRRFKWVDNEVVVNFGKNAGRTLRDLAENDPGFLRWIVRSDFSDEVRTIANDALMGKFPTRK | -0.283 |
| HMLQKEVHQQIQQALRALPYHQRTAIVLYYYEGMSVKEIAQATGSMQGTVQSRLFFARKKLRPILESILKK | -1.15 |
| HMKFNLWLSEKLKKLGLTQRKLAEQAGVSPATVSRWLSGEFEPDLTNLRKINQVLGVPERELFLQLGL | -0.193 |
| HMTGIRVYPNPTSSELRFSVATDAALYDATGARLRVVRGSDMMDIRDLASGTYYVRFADGSTQSVVVT | -0.755 |
| HMIGRIKGQLIEKKSDSVVIDVHGIGYVVYVTEKTARSLTLGDQSRDISLYSELLVKEDLLQLVGFI | -0.075 |
| HMRTYEHALTEEEKELILIVSNLSEYKSLPPSQIVPKLADLGIYIASESSFYRVLRAHNQLHHRGR | -2.75 |
| HMPFGIYGGKVSSLDDLKDKAAVLVPNDVSNEARALLLLEAQGLIKLKEGVGLEATRNDIVEN | ≥ 1.04 |
| HMLKSGSAVAQARDVILEKGVPVHINEILDALGKGDTREAKASLTSSLAAYVRRGEIFTRPAPNTFGLVEL | -0.592 |
| HMTTMTTGQRIAAKRKEQGLSQENLGEQLGVSRQAIYKWESDASLPDIDKLIALSRLFGVSTDYLLLE | -0.584 |
| HMKKYDIKEAQEIAEINRIPGLVTTSHGRRVYFDPKIMQYVSEEQIVKKYGQKTVKMLDQWYVSNILNK | -0.21 |
| HMHTDDDGITEAFPHLRLLSLGEDILDLLEKSRFIRKLNNELVYYVVDFREQNSIDGRRYHPSIYHNL | -0.437 |
| HMQPQLFRVIADDGLNIRSGPGPEYPPVAPMLRKGTQVELLQAGDRWSKVEVVGSTDVEGWVNQRYLQAV | -0.169 |
| HMRARTLSTTGGESLLTLAESLYPDDDRARARFIEATAAANPKLFADIAALTRVLPAGTTLRMPDLRA | -0.0128 |
| HMTSMNNTEELIDMANKIIDNNPNMVLKYKEGRNVLDFFIGQVMKETKGRANPSATSKIFKDLLEK | -0.0827 |
| HMRLIALPSVTDISIRQAEATLMSIGIKVSSIQYAPSEYKDLVLEVKYRGQSIIQGAKIPEGSSVVLVAGN | -3.21 |
| HMNGAVAEQARKQLMAALKASEFIAEEKLDEWLDALALPEDKRTAIVDAVDELDYEEAISELEN | 0.429 |

| Sequence | soluble fraction (log2) |
| --- | --- |
| HMSTEPLALVGKTGIAATVLRPSGRIEVDDKYYDAVSLGAFIEKGEMVNIVKYENLQLYVAKL | -2.18 |
| HMEKDEYIFVDIDGAVFNPGVYKLIAGSRVIDAINLAGGLKEKAFTQNLNKARKLVDGEKIYIYLEGDEE | -0.552 |
| HMGQDGFIGLEAAKKLVLQKLGLTSAEFIKAELDAEDRKYELELIVDGIEYDFDIDAYSGAFLKQEQETV | -0.519 |
| HMKTRTVVLKSAGGNKIAVIKIIKEITGLGLVEAKAVADNGGNIKENIPAEEAEAIKTQLTEAGAEVEL | -0.664 |
| HMESNDSNIEDDFYEGLKSMRKGDLKMSVVFFTRVIEKKPTFAEAWNRRATVYYMLGKFDKSMFDINETLK | -0.354 |
| HMTTTPAERQRTILRSLNRVDPVSVDALARLTGVSVVTIRRDLSDLASRDLIRRVHGGALLPTR | -1.62 |
| HMTINPFSTLAVRELEILHYLLNGHRTKEIATNLGLKMNTVSTIKSNIFEKVKADSFTHLLQLAHVHQIS | -1.07 |
| HMVSAMLLHKKEILNLLAEEPEALHFASLLRAFGGRHIKNELKQIVDDLVRSGEILRLRGNRYTLPGADN | -1.5 |
| HMELQYSQEIEEAQKILENLGLYRGEIDGINGINTKSAIREFQRKSGLVVDGILGPNTTNALSKGSDAYIT | 0.0481 |
| HMKELTYSDFRKAYPDIQGNLFGMAERYITALDWTEVAAKVETDEELRKERDIFYLVKTYIRKYVQ | -1.86 |
| HMLERPLKLKSHYVSAINEKVAVQFQAGEERKSIMGTLTEVNQDTIVIDDRGSVTEIPFKSIIRAKTVF | -0.621 |
| HMEYSTLEIYSQTKKDLIEKSPHLNKVVYDKDDGYIYLLSFEKEDDLTSFKSNIENDSDIKRIEANV | 0.121 |
| HMTSSKISFIDPVNGGKVSVSLENSTLEKLQNRFGVNSVVRNEAGDVELKDKAQEFVAGWFADIAYTRG | -0.0154 |
| HMSMLSQERQSLILDIIKEQGSVTVTRLTEILQSSESTVRRDLSYLASKGKINKVHGGATALG | -0.39 |
| HMPNNNDIVLDRVSFGYHEKEVLHGIDMTIREGTVNALVGPSGSGKSTIAKLIAGLWDVDGGSISF | 0.555 |
| HMDPNAITSAQVTKLQVLANEKGFAERQARLTMWAEVIGRNVGTANELTKAEAHKLIEHMDALPV | -0.691 |
| HMLYKNIAKKLRFRINSDEFAIGDVLPTERQLMEEYQASRVSIRKAIDELVAIDLIEKKQGSGTYIKQKEV | -1.89 |
| HMEKGNEEALEQAREAILAVQSGEKYVDLDPANAAIRRKQHALAQASDLVSQSYGKDPNRYVRIFR | 0.233 |
| HMVERQVTVPNLTGLGVADAQRLAQSMELDIEVLGEQESTDARPGAVLQQTPGAGTRAAAGSVVSVLV | 0.201 |
| HMPKYLNIYHELAQRIQEGALPAETKLPSETELMQEFEASRGTVRKAIDALQEKGFVRKHQGKGVFVLSQ | -0.00712 |
| HMIHDSAESVVFPFGKYKGYTLAHVIREHPHYTYWIRDNADFSPLWREAVSLALQNRDIGHLNLPHVK | -0.222 |
| HMGELTNALATLSERERDVARLVAQGLDNRQIAAQLFLSEGTVRNRISDILDKLALTNRTQLAIAWLHAE | -1.4 |
| HMHANAALTPRQRLRLAQKIVDEEWTVAAAADYFRVSWPTAAKWARRYVELGEAGMADRSSRP | -2.55 |
| HMGQTDTIIKTTTDLYYEMSTMSDDDKLVVAQTLRDVWMAVGRWSGKLSKKQREKVAEVKRVLGE | -0.866 |
| HMKKDDLKQINGIGTTIEKKLNEIDIYNFYQISNLSKEDIETISEKIKTFPGKIERDNWVGQAQELL | 0.0235 |
| HMHKIRRQTKITKSLLDQIEGIGSSRKKALLNHFGSAKAVGEAGETDLGTVKGISNSLAKKIYDFFHAT | -0.545 |
| HMGQELTMPDLKSMSRSNAEEKLKKMGLKLGAVFEENAKEPAGTVINQDPRSGSKITKGQTVDITVSLGEK | 0.265 |
